The data set can be described thus: label from the status in PepcDB records.

For “NQEPSGAVRITLSRFAYLLILKPAMAAFCQQYPGIQLEISVYDGTVNIIEERFDLGIRFGDILEGGVVARPLMKPFREGLYASSAYLAEYGVPAMPADLHHHRLIGYRFITNNRILPLILNDHGEQLTVEMPGQLISNDIDVM”, the protein production entry is recorded as “failed”.

As for “NQLWTVEEQKKLEQLLIKYPPEEVESRRWQKIADELGNRTAKQVASQVQKYFIKLTKAGIPV”, the protein production entry is on record as “not failed”.

In the case of “NSDLGGTLQFTSSNPDKAFGARLSQTLGSYDTSRTFMRVDTGEYNGLSAYVSGEKYDADAWKGHNNPQKSDAVNAKINYNFGDNRVSFFHSTSSHDEANLPSLSPSIIQRLGYNWSYYTPDWTRAVNAANGIYTGGVTSAGDATYNASSLRDDELDILNGNFSLTDDLVLDATVYHHHDSGRGNSYYPFVYTSGATTVPSNAIRSTVYGIDRTGFQSSLTYFLGQHEIQAGFWIQSNKNDIARYLFDTTNATPQNHIVKTNGLPLAATVLDQSYNDLTRQFYLRDTYTLLDDRLKLEFGAKNTVTTSTAKGKGGGYASGSLEARDRFLPQVGATYKLNDSDEVFTSYSENMAAFPSGGYSPFFTTQTAVDAQNGFKDLKPETSKTVELGLRRSTKLYSASAAVYNTRFDNRLVAITNCTGIVICQNGVANVGSVTSRGLELSLGLTPNENWRWSNSMSYNHSTYDDDYASGGSTVQVKGKTVVDTPKLMYSSSLDWNWEHWNAGLQGNYISKRYYTYTNDSSVSGYWLANANLGYDCGKLGALKDTTVSLNMVNLFDKRYISTLNTDASAAADPSGNLQILQVGTPRSAFVTLGVKL”, the protein production result is on record as “failed”.

Regarding “NSHKVQMEKEIALKQKKFEQKHLQNYTDEIVGLYNEIRGFRHDYAGMLVSMQMAIDSGNLQEIDRIYNEVLVKANHKLRSDKYTYFDLNNIEDSALRSLVAQSIVYARNNGVEFTLEVKDTITKLPIELLDLVRIMSVLLNNAVEGSADSYKKQMEVAVIKMETETVIVIQNSCKMTMTPSGDLFALGFSTKGRNRGVGLNNVKELLDKYNNIILETEMEGSTFRQIIRFKREFE”, the protein production entry is given as “failed”.

Consider “NTMRSFILRARSAPTDSQRLLDEIGGKCHTEILAHCMMNSLFTAQSHREDVVIHLVLESTRDYSRTITVEANEISDVGGFHEAALIALLVKALDASVGMGKEQTRVVQPGLTVRTISFEALLGELAEHHSLYMMDKKGDSIRDIKIGPNPCFILTDHIPMPKKSGNSMKRLGVEKISLGPKMLFASQCVTLIHNEIDHQEA”, for which the protein production result was “failed”.

In the case of “NWKTRLRMLNHFPKPTFEDIPLLDLALSDEKVPVRRQAIVLLGMIESKEILPYLYKGLRDKSPAVRRTAGDCISDLGYPEALPEMVLLLDDPQKIVRWRAAMFIFDEGNAEQLPALKAHINDNAFEVKLQIEMAISRIENGDEALGSVWKQMAN”, the protein production entry was “failed”.

Turning to “NYLRDQVVMVGYGEVGRRITKTLMQQEIKVVIAEENREIVEDLRKKGIAAVSGEATEPSVLIQAHIMHARMLILSPMDILDIHRIVDIAKQLNPQIEVLCCAENKEEAEIIRQDEIGLVFYAKEEMAKNMSHHILGQIERAHHLSLGH”, the protein production entry was “failed”.

On to “PAKRAFSNADQFVETMLPLAKEAAARIGVDPVMLVAQAALETGWGKSIMRQQDGSSSHNLFGIKAAGSWKGAEARAITSEFRDGKMVKETADFRSYDSYADSFHDLVSLLQNNNRYKDVVNSADKPEQFVKELQKAGYATDPAYASKISQIAKQMKS”, for which the protein production entry was “not failed”.

As to “PDATSKKVVPLGVEIYEINGPFFFGVADRLKGVLDVIEETPKVFILRMRRVPVIDATGMHALWEFQESCEKRGTILLLSGVSDRLYGALNRFGFIEALGEERVFDHIDKALAYAKLLVETAEERGRES”, the protein production entry is recorded as “not failed”.

For “PEDAINDESDDEDKVDKDDRLPQSDKDKRIVPENEYSDSEDEGEGGRRDNRSYKGQRKRPRLDKDTNSNKASSETSSEIKDEKEKGDGADGEESTASNTNS”, the protein production entry was “failed”.

In the case of “PEDSARVWQAFSRTLQTGEHVEIDYRYLDPGADDWIHLHVAWRGVRGSSPDTYDVIGITQNVTELVAARDAALAAAETKSQFLANMSHEIRTPMNGVLGVLHLLKTEK”, the protein production result is given as “failed”.

“PFYYRLHFCDTMELFIETLTGTCFELRVSPFETVISVKAKIRRLEGIPICRQHLIWNNMELENDYCLNDYNISEGCTLKLVLAMRGGPINTRRVPTDDPLR”: the protein production result is “failed”.

For “PGEAVGVTIFEMALDELAEKAGLDPLELRLRNIPEEDPETGKPFTSHMLAEALRDGADRFGWSDRRAPGERRQGEWLIGMGMASAVRVNMLHKARVRVTLTGEGALVESSMTDIGTGTYTILTQIVAEMLGLAPDRVRTVLGDTDLPEGSGSGGSIGAASNGSAAFLACEEIRRQIAAGMGCPEEELTLKDGRATCGNRTRDLAEIVTQPLSAEGHFEPGKALKGVRSSTFGAHFAEVAVNEITGEVRVRRMLGAFAAGRILNEKTARSQCLGGMTFGIGMALMEEMVHDRRFGQVVSRDLANYHIPAHADVPALEVHFLEERDSYGGTLQAKGIGELGICGSGAAVLNAIHNACGVRVRDLPATPDKVLDGL”, the protein production entry is “failed”.

As for “PIGKSADNMYSYLALVQDDPTVQVVNMAQKAYVEHYIQGDPDLAKLPVLSAAAPFKVGGRKNDPASFVEVEKGQLTFRNAADLYLYPNTLVVMKVSGKEVKEWLECSAGQFNQIDPASSKPQSLINWDGFRTYNFDVIDGVNYQIDVTQPARYDGECQMIHPQAERIKHLTFNGKPVDPQATFLVATNNYRAYGGKFAGTGESHIAFASPDENRSVLAAWIGAQSKKEGAIHPAADNNWRLAPIHSN”, the protein production result is listed as “failed”.

For the sequence “PKLTRVDIAHDDFEGKHISVDWGNMQDGLGGFQLGNRAPNIEHKGNWRRPNGKGRTLCIGSRDSGKYLRLYEKGRAEGDPNDNWQRAEVEFKSIDRVLPFDMLLAPSEFFIAAYPCFRDLAQHLQPERIETISKTAQINFQTAIENLKHQYGKYINIFKEVFEPEELINLISCSDPLAYPKRLDHVLITARRM”, the protein production entry was “failed”.

For “PLALFKWDLGFNLLECNQSAISMLNYTEDELKQCDFISALVPINEQKRVNKTCSDLLVNEGGEHGFNSLIKQNGNIILTEWHNSLIKDDS”, the protein production result is “failed”.

Take “PLLDSFKVDHTKMNAPAVRIAKTMLTPKGDNITVFDLRFCIPNKEILSPKGIHTLEHLFAGFMRDHLNGDSIEIIDISPMGCRTGFYMSLIGTPNEQKVSEAWLASMQDVLGVQDQASIPELNIYQCGSYTEHSLEDAHEIAKNVIARGIGVNKNEDLSLDNSLLK”: the protein production entry is on record as “not failed”.

In the case of “PLPNPEGLDSDFLAVLSDYPSPDISPPIFRRGEKLRVISDEGGWWKAISLSTGRESYIPGICVARV”, the protein production entry is reported as “not failed”.

“PMEDEPTSKKLKTEDSLMPEEEFLRRNKGPVSIKVQVPNMQDKTEWKLNGQVLVFTLPLTDQVSVIKVKIHEATGMPAGKQKLQYEGIFIKDSNSLAYYNMANGAVIHLALKERGGRKK”: the protein production entry is given as “failed”.

On to “PPGPCLPPRLQGRPKAKEIQLRWGPPLVDGGSPISCYSVEMSPIEKDEPREVYQGSEVECTVSSLLPGKTYSFRLRAANKMGFGPFSEKCDITTAPG”, for which the protein production entry was “not failed”.

On to “PPNDNIPTPLEKEEKAKEASDNKEKTKETSNSAQNAQNTQASDKTSDNKSTAPKETIKHFTQQLKQEIQEYKPPMSRISMDLFPKELGKVEVIIQKVGKNLKVSVISHNNSLQTFLDNQQDLKNSLNALGFEGVDLSFSQDS”, for which the protein production result is given as “failed”.

As to “PPQAMNALMRLNQLKPGLQYKLVSQTGPVHAPIFTMSVEVDGNSFEASGPSKKTAKLHVAVKVLQDMGLPTGAEGRDSSKGEDS”, the protein production result is “failed”.

Turning to “PPVIRQGPVNQTVAVDGTFVLSCVATGSPVPTILWRKDGVLVSTQDSRIKQLENGVLQIRYAKLGDTGRYTCIASTPSGEATWSAYIEVQEFGVPVQPPRPTDPNLIPSAP”, the protein production entry is recorded as “not failed”.

In the case of “PQKIFTPSAEIVKYTKIIAMEKLYAVFTDYEHDKVSRDEAVNKIRLDTEEHLKEKFPEVDQFEIIESFNIVAKEVFRSIILNEYKRCDGRD”, the protein production entry was “not failed”.

In the case of “PRPAVSVAPTTEAESFVQDRIEEDGLHVVHFWAPWCANSRNELDNGWAGLVADNPDVTFTFVTVWNDDESGAAMLNDYNLPDRVVEVTQPDLGPSDTEANRRYSFLGLPVTWIPSTWIFHSNGELAFAMNYGEMEMQTVQRLLDATSADW”, the protein production entry is given as “failed”.

As for “PTLDSVEDGVLKKVVINISNSCNLSCSYCYADGGNYGMDNRIMDLTTADNIIQEIASKGVTQINRLILFGGEPFLNIELFIYFIEKLSTLLNVVKIETVTNGTVLNKRVKEMLVKFHPYLTISLDGPEIVHDRLRGRGSHRKTLRFINYLKNIDYE”, the protein production result was “failed”.

Turning to “QAEMTQRMQQLEALNDLNRAILAASDAEQIAQIGLRSLRRQVPFWGATAMLIDWESSCARVLAIERAPGASYDPGQRLSLVSYGMEDLERMKRGETCVVTDLGQIPRRALTLERLYQQGIQSYARIPLLAEGRLLGMLNLASDAVGAFDAAQLDVAQAYARHLAVSLQQSLL”, the protein production entry was “failed”.

Consider “QAPLRIECTDISHIQGTDVVASLVVFEDGLPRKSDYRRYRVKEAAGDGHSNDVASIAEITRRRFLRHNQDKLAVPEAEEFDGSTFSDEKVEEMSTDARRFAYPPQIFIVDGGAPQVAAAQEVFDELGIVDVVLIGLAKRLEEIWLPGDPDPVILPRNSQALFLLQQIRDEAHRFAITYHRQQRSKRMRVSELDSIKG”, for which the protein production entry is “failed”.

For the sequence “QAVPCRAPKVGRLIYTAGGYFRQSLSYLEAYNPSNGSWLRLADLQVPRSGLAGCVVGGLLYAVGGRNNSPDGNTDSSALDCYNPMTNQWSPCASMSVPRNRIGVGVIDGHIYAVGGSHGCIHHSSVERYEPERDEWHLVAPMLTRRIGVGVAVLNRLLYAVGGFDGTNRLNSAECYYPERNEWRMITPMNTIRSGAGVCVLHNCIYAAGGYDGQDQLNSVERYDVETETWTFVAPMRHRSALGITVHQGKIYVLGGYDGHTFLDSVECYDPDSDTWSEVTRMTSGRSGVGVAVTMEPCRKQIDQQNCTC”, the protein production result was “not failed”.

As to “QIGVPPSGPMDDLSFRLGNTALGNPEGAPGLEFTMAGPALRFTHATTVCVTGADVTVTVNGNTANTWEPITVPENGLLDVGSADGSGLRGYILFEGGLDVPRYLGSASTFTLGQFGGHGGRVLRTSDVLRTVSDHLPETVPGVVPEESRPALTSDWELKVVEGPHGAPEFFEREDIEELYAAEYEVHFNSARTGVRLIGPKPRWARNDGGEAGLHPSNIHDTAYSVGALDFTGDTPILLGPDGPSLGGFVCPVTVVTGERWKLGQLRPGDKVRFVPIRSVEAPSVKELGAAR”, the protein production entry is on record as “failed”.

For “QIHLFSEPQFQGHSQSFEETTSQIDDSFSTKSCRVSGGSWVVYDGENFTGNQYVLEEGHYPCLSAMGCPPGATFKSLRFI”, the protein production entry is “not failed”.

Consider QKEKCFKCNKCEKTFSCSKYLTQHERIHTRGVK, for which the protein production entry is “not failed”.

Regarding “QKIEKQYDADLEQILIQWITTQCRKDVGRPQPGRENFQNWLKDGTVLCELINALYPEGQAPVKKIQASTMAFKQMEQISQFLQAAERYGINTTDIFQTVDLWEGKNMACVQRTLMNLGGLAVARDDGLFSGDPNWFPKKSKE”, the protein production result is recorded as “not failed”.

Take “QKKDTSNHFHVFVGDLSPEITTEDIKAAFAPFGRISDARVVKDMATGKSKGYGFVSFFNKWDAENAIQQMGGQWLGGRQIRTNWATRKPPAPKSTYESNTKQ”: the protein production result was “not failed”.

For “QKVPLPSLSPTMQAGTIARWEKKEGDKINEGDLIAEVETDKATVGFESLEECYMAKILVAEGTRDVPIGAIICITVGKPEDIEAFKNYTLDSSAA”, the protein production result is “not failed”.
